The values below come from publication PMC4931344, “The FNIP co-chaperones decelerate the Hsp90 chaperone cycle and enhance drug binding” (Nature Communications, 2016).

One may read the Kd as the free concentration of one partner at which half of the binding sites on the other are occupied at equilibrium, for simple one-to-one binding. Lower therefore signals higher affinity.

For assay [1], the target named is FNIP1-D–His6 labelled with Texas Red Maleimide (UniProt Q8TF40). As to the kind of experiment: fluorescence polarisation; fluorescence anisotropy; 1 μM Texas Red-labelled FNIP1-D, Hsp90α titrated; 50 mM Tris pH 7.2, 150 mM NaCl, 1 mM TCEP, 4 mM MgCl2, with or without 1 mM ATP, ADP or AMPPNP; single-site binding equation.
Assay [2] has as its target T1, FLAG–FNIP1 (bacterially expressed and purified) (UniProt Q8TF40 1-1166).
T1 construct: FNIP1; bacterial expression from pRSET-A; also called recombinant FNIP1; source: bacterially expressed and purified (a small amount)
T1 sequence (looked up): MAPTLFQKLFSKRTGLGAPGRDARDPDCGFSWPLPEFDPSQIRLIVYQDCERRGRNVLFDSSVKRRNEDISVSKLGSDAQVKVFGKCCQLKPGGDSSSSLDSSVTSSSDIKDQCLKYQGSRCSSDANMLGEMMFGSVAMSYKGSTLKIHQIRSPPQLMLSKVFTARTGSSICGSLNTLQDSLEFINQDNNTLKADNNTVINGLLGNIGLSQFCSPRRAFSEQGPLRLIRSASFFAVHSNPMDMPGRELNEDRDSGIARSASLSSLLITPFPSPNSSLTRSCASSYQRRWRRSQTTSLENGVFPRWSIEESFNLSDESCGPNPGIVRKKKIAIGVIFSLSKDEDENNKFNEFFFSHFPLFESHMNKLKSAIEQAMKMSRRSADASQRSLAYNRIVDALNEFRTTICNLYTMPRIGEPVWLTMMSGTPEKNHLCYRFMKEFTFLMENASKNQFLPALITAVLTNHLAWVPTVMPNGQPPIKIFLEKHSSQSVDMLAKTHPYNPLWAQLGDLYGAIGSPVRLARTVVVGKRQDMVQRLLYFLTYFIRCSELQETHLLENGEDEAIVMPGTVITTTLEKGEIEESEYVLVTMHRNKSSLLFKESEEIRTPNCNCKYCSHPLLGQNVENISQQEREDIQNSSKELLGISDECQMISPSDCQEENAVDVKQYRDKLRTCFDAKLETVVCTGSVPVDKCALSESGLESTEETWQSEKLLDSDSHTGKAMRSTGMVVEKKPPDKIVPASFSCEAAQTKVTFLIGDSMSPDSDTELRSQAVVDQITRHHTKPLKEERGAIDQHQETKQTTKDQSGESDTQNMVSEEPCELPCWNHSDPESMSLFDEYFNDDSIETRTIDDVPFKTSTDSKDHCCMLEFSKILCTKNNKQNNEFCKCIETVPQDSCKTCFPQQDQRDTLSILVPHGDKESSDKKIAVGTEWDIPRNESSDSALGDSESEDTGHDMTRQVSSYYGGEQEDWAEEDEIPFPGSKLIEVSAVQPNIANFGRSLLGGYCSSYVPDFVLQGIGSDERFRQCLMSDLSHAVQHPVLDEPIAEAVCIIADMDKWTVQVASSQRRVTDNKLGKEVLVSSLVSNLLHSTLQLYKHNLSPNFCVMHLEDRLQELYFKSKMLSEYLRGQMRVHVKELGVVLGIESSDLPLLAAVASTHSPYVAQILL
As to the kind of experiment: pull-down; His6-tagged protein bound to Ni-NTA agarose, incubated with 10 ng pure FLAG–FNIP1; immunoblot. The settings on record: both partners purified. Background: A western blot detects proteins with antibodies after separation by electrophoresis.

Assay [3] concerns the target Hsp90α–FLAG full-length (wild type) (human) (UniProt P07900).

Regarding “Hsp90α–His6 (from UniProt P07900 1-732) (natural protein)”, in assay [1], the dissociation constant Kd was 1300 nM. This lies in the single-digit micromolar range.

B1: FLCN–His6 (natural protein, UniProt Q8NFG4 1-579, looked up)
chain: MNAIVALCHFCELHGPRTLFCTEVLHAPLPQGDGNEDSPGQGEQAEEEEGGIQMNSRMRAHSPAEGASVESSSPGPKKSDMCEGCRSLAAGHPGYISHDKETSIKYVSHQHPSHPQLFSIVRQACVRSLSCEVCPGREGPIFFGDEQHGFVFSHTFFIKDSLARGFQRWYSIITIMMDRIYLINSWPFLLGKVRGIIDELQGKALKVFEAEQFGCPQRAQRMNTAFTPFLHQRNGNAARSLTSLTSDDNLWACLHTSFAWLLKACGSRLTEKLLEGAPTEDTLVQMEKLADLEEESESWDNSEAEEEEKAPVLPESTEGRELTQGPAESSSLSGCGSWQPRKLPVFKSLRHMRQVLGAPSFRMLAWHVLMGNQVIWKSRDVDLVQSAFEVLRTMLPVGCVRIIPYSSQYEEAYRCNFLGLSPHVQIPPHVLSSEFAVIVEVHAAARSTLHPVGCEDDQSLSKYEFVVTSGSPVAADRVGPTILNKIEAALTNQNLSVDVVDQCLVCLKEEWMNKVKVLFKFTKVDSRPKEDTQKLLSILGASEEDNVKLLKFWMTGLSKTYKSHLMSTVRSPTASESRN
notes: folliculin (FLCN), bacterially expressed; The name puts His6 behind the protein; source: bacterially expressed and purified; not shown: His6, N-terminal, kept
Turning to B1, in assay [2], the binding result is given as “binds”.

B2: HA–FNIP2 (natural protein)
chain: MAPTLLQKLFNKRGSSGSSAAASAQGRAPKEGPAFSWSCSEFDLNEIRLIVYQDCDRRGRQVLFDSKAVQKIEEVTAQKTEDVPIKISAKCCQGSSSVSSSSSSSISSHSSSGGSSHHAKEQLPKYQYTRPASDVNMLGEMMFGSVAMSYKGSTLKIHYIRSPPQLMISKVFSARMGSFCGSTNNLQDSFEYINQDPNLGKLNTNQNSLGPCRTGSNLAHSTPVDMPSRGQNEDRDSGIARSASLSSLLITPFPSPSSSTSSSSSYQRRWLRSQTTSLENGIIPRRSTDETFSLAEETCSSNPAMVRRKKIAISIIFSLCEKEEAQRNFQDFFFSHFPLFESHMNRLKSAIEKAMISCRKIAESSLRVQFYVSRLMEALGEFRGTIWNLYSVPRIAEPVWLTMMSGTLEKNQLCQRFLKEFTLLIEQINKNQFFAALLTAVLTYHLAWVPTVMPVDHPPIKAFSEKRTSQSVNMLAKTHPYNPLWAQLGDLYGAIGSPVRLTRTVVVGKQKDLVQRILYVLTYFLRCSELQENQLTWSGNHGEGDQVLNGSKIITALEKGEVEESEYVVITVRNEPALVPPILPPTAAERHNPWPTGFPECPEGTDSRDLGLKPDKEANRRPEQGSEACSAGCLGPASDASWKPQNAFCGDEKNKEAPQDGSSRLPSCEVLGAGMKMDQQAVCELLKVEMPTRLPDRSVAWPCPDRHLREKPSLEKVTFQIGSFASPESDFESRMKKMEERVKACGPSLEASEAADVAQDPQVSRSPFKPGFQENVCCPQNRLSEGDEGESDKGFAEDRGSRNDMAADIAGQLSHAADLGTASHGAGGTGGRRLEATRGLYVKAAEGPVLEPVAPRCVQRGPGLVAGANIPCGDDNKKANFRTEGDIPRNESSDSALGDSDDEACASAMLDLGHGGDRTGGSLEVELPLPRSQSISTQNVRNFGRSLLAGYCPTYMPDLVLHGTGSDEKLKQCLVADLVHTVHHPVLDEPIAEAVCIIADTDKWSVQVATSQRKVTDNMKLGQDVLVSSQVSSLLQSILQLYKLHLPADFCIMHLEDRLQEMYLKSKMLSEYLRGHTRVHVKELGVVLGIESNDLPLLTAIASTHSPYVAQILL
B2 showed an inhibition of the in vitro ATPase activity of isolated Hsp90α (PiPer Phosphate Assay; Hsp90α 291.5 nM) by 1.6 μM FNIP2 in assay [3] of 8 fold.

B3: HA–FNIP1 (natural protein)
chain: MAPTLFQKLFSKRTGLGAPGRDARDPDCGFSWPLPEFDPSQIRLIVYQDCERRGRNVLFDSSVKRRNEDISVSKLGSDAQVKVFGKCCQLKPGGDSSSSLDSSVTSSSDIKDQCLKYQGSRCSSDANMLGEMMFGSVAMSYKGSTLKIHQIRSPPQLMLSKVFTARTGSSICGSLNTLQDSLEFINQDNNTLKADNNTVINGLLGNIGLSQFCSPRRAFSEQGPLRLIRSASFFAVHSNPMDMPGRELNEDRDSGIARSASLSSLLITPFPSPNSSLTRSCASSYQRRWRRSQTTSLENGVFPRWSIEESFNLSDESCGPNPGIVRKKKIAIGVIFSLSKDEDENNKFNEFFFSHFPLFESHMNKLKSAIEQAMKMSRRSADASQRSLAYNRIVDALNEFRTTICNLYTMPRIGEPVWLTMMSGTPEKNHLCYRFMKEFTFLMENASKNQFLPALITAVLTNHLAWVPTVMPNGQPPIKIFLEKHSSQSVDMLAKTHPYNPLWAQLGDLYGAIGSPVRLARTVVVGKRQDMVQRLLYFLTYFIRCSELQETHLLENGEDEAIVMPGTVITTTLEKGEIEESEYVLVTMHRNKSSLLFKESEEIRTPNCNCKYCSHPLLGQNVENISQQEREDIQNSSKELLGISDECQMISPSDCQEENAVDVKQYRDKLRTCFDAKLETVVCTGSVPVDKCALSESGLESTEETWQSEKLLDSDSHTGKAMRSTGMVVEKKPPDKIVPASFSCEAAQTKVTFLIGDSMSPDSDTELRSQAVVDQITRHHTKPLKEERGAIDQHQETKQTTKDQSGESDTQNMVSEEPCELPCWNHSDPESMSLFDEYFNDDSIETRTIDDVPFKTSTDSKDHCCMLEFSKILCTKNNKQNNEFCKCIETVPQDSCKTCFPQQDQRDTLSILVPHGDKESSDKKIAVGTEWDIPRNESSDSALGDSESEDTGHDMTRQVSSYYGGEQEDWAEEDEIPFPGSKLIEVSAVQPNIANFGRSLLGGYCSSYVPDFVLQGIGSDERFRQCLMSDLSHAVQHPVLDEPIAEAVCIIADMDKWTVQVASSQRRVTDNKLGKEVLVSSLVSNLLHSTLQLYKHNLSPNFCVMHLEDRLQELYFKSKMLSEYLRGQMRVHVKELGVVLGIESSDLPLLAAVASTHSPYVAQILL
B3: the inhibition of the in vitro ATPase activity of isolated Hsp90α (PiPer Phosphate Assay; Hsp90α 291.5 nM) by 200 nM FNIP1 (189.8 nM in the results) in assay [3] was 50 fold.
